± gives the standard deviation of the averaged measurements.
B1: library; a variant is named by its letters at N, in order (parent)
chain: GCUGUCACCGGAAUACCAGCAUCGUCUUGAUGCCCUUGGAAGUCCGGUCUGAUGAGUCCNNNNNGGACGAAACAGC

Experiments:
theophylline [1] = variants of: B1; test: FACS-Seq fitted mean relative fluorescence mCherry/BFP without ligand (log10 relative fluorescence); higher = higher reporter protein expression; conditions: HEK293T, ligand present: no
Method: (§1)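 Hammerhead (sTRSV) ribozyme switch libraries with a ligand aptamer grafted on stem I and a randomized N4-6 loop II, cloned into the 3' UTR of mCherry and transiently transfected into HEK293T cells; RNA-Seq 72 h post transfection with ligand added 1 h before transfection; RNA read count / plasmid DNA read count normalized to the non-cleaving sTRSVctl (x100), log10; sequences with >100 DNA reads. FACS-Seq: lentiviral library sorted into 6 bins after 48 h ligand, log-normal fit mean of mCherry/BFP scaled to controls. Printed sequences are partial switch sequences.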

theophylline [2] = variants of: B1; test: normalized RNA/DNA level with ligand (relative to sTRSVctl = 100) (log10 (% of sTRSVctl)); higher = less ribozyme self-cleavage, higher mRNA level; conditions: ligand concentration (+) RNA-Seq: 5 mM, HEK293T, reporter: mCherry (pCS4076), ligand present: yes
Method: as §1

theophylline [3] = variants of: B1; test: normalized RNA/DNA level without ligand (relative to sTRSVctl = 100) (log10 (% of sTRSVctl)); higher = less ribozyme self-cleavage, higher mRNA level; conditions: HEK293T, reporter: mCherry (pCS4076), ligand present: no
Method: as §1

theophylline [4] = variants of: B1; test: FACS-Seq fitted mean relative fluorescence mCherry/BFP with ligand (log10 relative fluorescence); ligand concentration (+) FACS-Seq: 1 mM; higher = higher reporter protein expression; conditions: HEK293T, ligand present: yes
Method: as §1

Row | Variant | FACS-Seq fitted mean (log10) (theophylline [1]) | normalized RNA/DNA level with ligand (log10) (theophylline [2]) | normalized RNA/DNA level without ligand (log10) (theophylline [3]) | FACS-Seq fitted mean (log10) (theophylline [4])
1 | GCUGUCACCGGAAUACCAGCAUCGUCUUGAUGCCCUUGGAAGUCCGGUCUGAUGAGUCCAACAAGGACGAAACAGC [AACAA] | 0.377 ± 0.039 | 1.99 ± 0.086 | 1.45 ± 0.25 | 0.704 ± 0.013
2 | GCUGUCACCGGAAUACCAGCAUCGUCUUGAUGCCCUUGGAAGUCCGGUCUGAUGAGUCCCCGGCGGACGAAACAGC [CCGGC] | 0.695 ± 0.065 | 2 ± 0.13 | 1.97 ± 0.044 | 0.721 ± 0.011
3 | GCUGUCACCGGAAUACCAGCAUCGUCUUGAUGCCCUUGGAAGUCCGGUCUGAUGAGUCCUCUGUGGACGAAACAGC [UCUGU] | 0.6475 ± 0.0019 | 2.099 ± 0.014 | 2.01 ± 0.1 | 0.6442 ± 0.0018
4 | GCUGUCACCGGAAUACCAGCAUCGUCUUGAUGCCCUUGGAAGUCCGGUCUGAUGAGUCCCGGAAGGACGAAACAGC [CGGAA] | -0.0214 ± 0.074 | 1.9 ± 0.055 | 1.25 ± 0.17 | 0.354 ± 0.0054
5 | GCUGUCACCGGAAUACCAGCAUCGUCUUGAUGCCCUUGGAAGUCCGGUCUGAUGAGUCCUAAUCGGACGAAACAGC [UAAUC] | 0.913 ± 0.018 | 1.9 ± 0.047 | 1.94 ± 0.098 | 0.9083 ± 0.0059
6 | GCUGUCACCGGAAUACCAGCAUCGUCUUGAUGCCCUUGGAAGUCCGGUCUGAUGAGUCCCAUGAGGACGAAACAGC [CAUGA] | 0.56151 ± 0.00013 | 2.03 ± 0.064 | 1.69 ± 0.1 | 0.619 ± 0.12
7 | GCUGUCACCGGAAUACCAGCAUCGUCUUGAUGCCCUUGGAAGUCCGGUCUGAUGAGUCCUUAUUGGACGAAACAGC [UUAUU] | 0.914 ± 0.092 | 1.96 ± 0.12 | 1.95 ± 0.11 | 0.942 ± 0.076
8 | GCUGUCACCGGAAUACCAGCAUCGUCUUGAUGCCCUUGGAAGUCCGGUCUGAUGAGUCCAAGGUGGACGAAACAGC [AAGGU] | 0.228 ± 0.0068 | 1.94 ± 0.047 | 1.72 ± 0.044 | 0.445 ± 0.067
9 | GCUGUCACCGGAAUACCAGCAUCGUCUUGAUGCCCUUGGAAGUCCGGUCUGAUGAGUCCCGACAGGACGAAACAGC [CGACA] | 0.409 ± 0.006 | 2.012 ± 0.02 | 1.45 ± 0.061 | 0.769 ± 0.0091
10 | GCUGUCACCGGAAUACCAGCAUCGUCUUGAUGCCCUUGGAAGUCCGGUCUGAUGAGUCCUGAGUGGACGAAACAGC [UGAGU] | 0.6996 ± 0.0034 | 2.02 ± 0.17 | 1.86 ± 0.12 | 0.676 ± 0.013
11 | GCUGUCACCGGAAUACCAGCAUCGUCUUGAUGCCCUUGGAAGUCCGGUCUGAUGAGUCCUGAGAGGACGAAACAGC [UGAGA] | 0.307 ± 0.012 | 1.922 ± 0.0069 | 1.5 ± 0.13 | 0.709 ± 0.041
12 | GCUGUCACCGGAAUACCAGCAUCGUCUUGAUGCCCUUGGAAGUCCGGUCUGAUGAGUCCAUCCAGGACGAAACAGC [AUCCA] | 0.993 ± 0.031 | 2 ± 0.13 | 1.95 ± 0.1 | 0.788 ± 0.066
13 | GCUGUCACCGGAAUACCAGCAUCGUCUUGAUGCCCUUGGAAGUCCGGUCUGAUGAGUCCUCCUAGGACGAAACAGC [UCCUA] | 0.918 ± 0.078 | 2 ± 0.13 | 2.007 ± 0.0046 | 0.92 ± 0.058
14 | GCUGUCACCGGAAUACCAGCAUCGUCUUGAUGCCCUUGGAAGUCCGGUCUGAUGAGUCCCCCUAGGACGAAACAGC [CCCUA] | 0.768 ± 0.05 | 2.01 ± 0.077 | 1.872 ± 0.011 | 0.751 ± 0.022
15 | GCUGUCACCGGAAUACCAGCAUCGUCUUGAUGCCCUUGGAAGUCCGGUCUGAUGAGUCCUAAGCGGACGAAACAGC [UAAGC] | 1.08 ± 0.011 | 1.94 ± 0.059 | 1.92 ± 0.1 | 1.04 ± 0.073
16 | GCUGUCACCGGAAUACCAGCAUCGUCUUGAUGCCCUUGGAAGUCCGGUCUGAUGAGUCCUUUUCGGACGAAACAGC [UUUUC] | 0.917 ± 0.042 | 2.01 ± 0.077 | 1.99 ± 0.18 | 0.94 ± 0.041
17 | GCUGUCACCGGAAUACCAGCAUCGUCUUGAUGCCCUUGGAAGUCCGGUCUGAUGAGUCCGAAGUGGACGAAACAGC [GAAGU] | 0.25 ± 0.013 | 1.94 ± 0.12 | 1.68 ± 0.17 | 0.483 ± 0.031
18 | GCUGUCACCGGAAUACCAGCAUCGUCUUGAUGCCCUUGGAAGUCCGGUCUGAUGAGUCCAGUUAGGACGAAACAGC [AGUUA] | 0.892 ± 0.082 | 1.87 ± 0.14 | 1.68 ± 0.039 | 1.035 ± 0.0042
